Earlier results in patent US6689582B1, “Polynucleotide molecules encoding proteins having proteinase inhibitor activity” (Bayer Pharmaceuticals Corporation, priority 1999, dated 2004).
Where two headings read alike, the source gives them in different places. Ends that are not written are not given here.

Legend:
plasma kallikrein = plasma kallikrein (Homo sapiens, UniProt P03952)
cathepsin G = target: T1, cathepsin G (Homo sapiens, UniProt P08311)
T1 sequence (P08311 21-255): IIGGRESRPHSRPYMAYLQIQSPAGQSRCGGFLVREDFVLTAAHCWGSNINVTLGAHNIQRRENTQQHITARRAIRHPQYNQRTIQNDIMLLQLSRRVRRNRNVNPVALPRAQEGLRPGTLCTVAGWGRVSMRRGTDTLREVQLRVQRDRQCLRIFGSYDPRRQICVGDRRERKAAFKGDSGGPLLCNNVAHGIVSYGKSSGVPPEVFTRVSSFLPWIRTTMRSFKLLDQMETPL

leukocyte elastase = target: T2, leukocyte elastase (Homo sapiens, UniProt P08246)
T2 sequence (P08246 30-267): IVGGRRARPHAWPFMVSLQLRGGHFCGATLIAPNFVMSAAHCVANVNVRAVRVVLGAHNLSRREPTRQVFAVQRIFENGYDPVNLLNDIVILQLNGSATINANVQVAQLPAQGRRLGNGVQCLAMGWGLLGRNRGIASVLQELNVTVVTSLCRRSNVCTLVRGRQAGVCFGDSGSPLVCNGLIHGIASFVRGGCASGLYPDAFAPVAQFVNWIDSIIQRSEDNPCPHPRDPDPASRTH

thrombin = thrombin (Homo sapiens, UniProt P00734)
proteinase 3 = target: T3, proteinase 3 (Homo sapiens, UniProt P24158)
T3 sequence (P24158 28-256): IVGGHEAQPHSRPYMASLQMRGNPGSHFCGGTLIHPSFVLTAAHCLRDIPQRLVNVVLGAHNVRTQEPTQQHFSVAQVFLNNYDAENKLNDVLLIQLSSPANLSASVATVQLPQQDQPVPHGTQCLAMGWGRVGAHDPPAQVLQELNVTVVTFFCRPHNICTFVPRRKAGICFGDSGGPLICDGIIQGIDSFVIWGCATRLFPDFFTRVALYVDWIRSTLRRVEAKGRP

plasma kallikrein, sequence (P03952 20-638, species assumed): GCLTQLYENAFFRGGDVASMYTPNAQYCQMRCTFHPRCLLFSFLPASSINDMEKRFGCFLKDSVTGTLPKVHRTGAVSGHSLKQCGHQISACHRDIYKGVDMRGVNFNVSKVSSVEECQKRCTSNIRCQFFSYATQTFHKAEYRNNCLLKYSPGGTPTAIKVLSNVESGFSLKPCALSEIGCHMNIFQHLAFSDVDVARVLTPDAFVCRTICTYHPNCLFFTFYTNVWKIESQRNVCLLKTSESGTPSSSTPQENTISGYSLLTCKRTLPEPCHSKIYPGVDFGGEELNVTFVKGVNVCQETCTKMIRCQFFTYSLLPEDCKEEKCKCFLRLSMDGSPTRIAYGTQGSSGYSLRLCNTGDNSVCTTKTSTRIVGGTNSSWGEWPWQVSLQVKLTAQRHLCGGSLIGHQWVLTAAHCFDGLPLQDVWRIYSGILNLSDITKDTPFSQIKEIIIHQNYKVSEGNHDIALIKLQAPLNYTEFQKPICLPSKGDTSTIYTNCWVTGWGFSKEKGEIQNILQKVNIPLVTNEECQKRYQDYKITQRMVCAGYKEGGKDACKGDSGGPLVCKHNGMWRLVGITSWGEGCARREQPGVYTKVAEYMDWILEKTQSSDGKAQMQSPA

For “APP KD variant (T11D, P13H, M17A, I18H, S19P and F34Y): phage display derived plasma kallikrein inhibitor differing from APP KD at 6 key residues (VREVCSEQAEDGHCRAAHPRWYFDVTEGKCAPFYYGGCGGNRNNFDTEEYCMAVC; ends and bridges not checked; cysteine pairing not given here)”, the Ki (plasma kallikrein) is given as ~0.015 nM and the “increase in binding affinity to plasma kallikrein compared to wild-type APP KD” value (plasma kallikrein) is given as “more than 10,000 fold”.

In the case of “Alpha-1-proteinase: serpin family serine proteinase inhibitor, major serum inhibitor of elastase and cathepsin G”, the “inhibition of cathepsin G (in words)” value (cathepsin G) is given as “inhibit” and the “inhibition of cathepsin G (in words)” value (cathepsin G; listed as Alpha 1-proteinase inhibitor) is given as “potent inhibitor”.

For “alpha 1-proteinase inhibitor [Arg358]: P1 variant of alpha 1-proteinase inhibitor”, the “inhibition of leukocyte elastase (in words)” value (leukocyte elastase) is listed as “not” and the “inhibition of thrombin (in words)” value (thrombin) is listed as “potent inhibitor”.

For “elafin: member of the mucous proteinase inhibitor family (AQEPVKGPVSTKPGSCPIILIRCAMLNPPNRCLKDTDCPGIKKCCEGSCGMACFVPQ; ends and bridges not checked; cysteine pairing not given here; UniProt P19957 61-117, looked up)”, the “inhibition of proteinase 3 (in words)” value (proteinase 3) is given as “not”.

B1: placental bikunin: human Kunitz family inhibitor, potent inhibitor of plasmin (protein, UniProt O43291 28-252, looked up)
Kunitz-type protease …: ADRERSIHDFCLVSKVVGRCRASMPRWWYNVTDGSCQLFVYGGCDGNSNNYLTKEECLKKCATVTENATGDLATSRNAADSSVPSAPRRQDSEDHSSDMFNYEEYCTANAVTGPCRASFPRWYFDVERNSCNNFIYGGCRGNKNSYRSEEACMLRCFRQQENPPLPLGSKVVVLAGLFVMVLILFLGASMVYLIRVARRNQERALRTVWSSGDDKEQLVKNTYVL
In the case of B1, the “inhibition of leukocyte elastase (in words)” value (leukocyte elastase) is given as “not”.

B2: Alpha-1-antichymotrypsin: serpin family proteinase inhibitor, physiological cathepsin G inhibitor (protein, UniProt P01011 24-423, looked up)
Alpha-1-antichymotrypsin: HPNSPLDEENLTQENQDRGTHVDLGLASANVDFAFSLYKQLVLKAPDKNVIFSPLSISTALAFLSLGAHNTTLTEILKGLKFNLTETSEAEIHQSFQHLLRTLNQSSDELQLSMGNAMFVKEQLSLLDRFTEDAKRLYGSEAFATDFQDSAAAKKLINDYVKNGTRGKITDLIKDLDSQTMMVLVNYIFFKAKWEMPFDPQDTHQSRFYLSKKKWVMVPMMSLHHLTIPYFRDEELSCTVVELKYTGNASALFILPDQDKMEEVEAMLLPETLKRWRDSLEFREIGELYLPKFSISRDYNLNDILLQLGIEEAFTSKADLSGITGARNLAVSQVVHKAVLDVFEEGTEASAATAVKITLLSALVETRTIVRFNRPFLMIIVPTDTQNIFFMSKVTNPKQA
For B2, the “inhibition of proteinase 3 (in words)” value (proteinase 3) is listed as “not”.

B3: SLPI: member of the mucous proteinase inhibitor family (protein, UniProt P03973 26-132, looked up)
Antileukoproteinase: SGKSFKAGVCPPKKSAQCLRYKKPECQSDWQCPGKKRCCPDTCGIKCLDPVDTPNPTRRKPGKCPVTYGQCLMLNPPNFCEMDGQCKRDLKCCMGMCGKSCVSPVKA
For B3, the “inhibition of proteinase 3 (in words)” value (proteinase 3) is listed as “not”.
